Results on 15 molecules are retold here after patent US20150361176A1 (GlaxoSmithKline, published 2015).

In assay [1] the target is human TGF-βRII on cells (SBE-bla HEK 293T cells; A549 cells) (human, UniProt P37173 23-567). Description: cell-based or functional assay.
Assay [2] has as its target T1, recombinant human TGF-β RII/Fc chimera protein (human, UniProt P37173 24-159).
T1 construct: range 24-159; Made in HEK-F cells; Biotinylated where it was put on SA chips, otherwise captured by anti-human IgG; also called human TGFbRII/Fc; hRII-Fc; not shown: Fc region of human IgG1
Description: SPR Biacore T200, receptor-Fc captured by anti-human IgG, dAb as analyte, 1:1 model. The procedure:
(§1) Anti-human IgG was immobilised on a Biacore CM4 chip by primary amine coupling according to the manufacturer's instructions. Human TGF-β RII/Fc, cynomolgus TGF-β RII/Fc or human Fc fragment were captured on this surface. Domain antibodies were passed over the two captured receptors at 3 concentrations of 100, 10 and 1 nM (DOM23h-439 dAbs) or 100, 25 and 6.25 nM (DOM23h-271 dAbs). Only the 100 nM concentration of each dab was passed over human Fc fragment to confirm specificity of binding to the extracellular TGF-β RII domain. An injection of buffer over the captured antigen surface was used for double referencing. […] All runs were carried out at 25° C. using HBS-EP buffer as running buffer. Data were generated using the BIACORE™ T200 and fitted to the 1:1 binding model inherent to the software. […] The DOM23h-271 dAbs and the DOM23h-439 lineages were run in separate experiments.

Assay [3] has as its target T2, cynomolgus TGF-β RII/Fc (cynomolgus).
T2 construct: extracellular domain; also called Cyno TGFBRII; Cyno TGFbRII
The description is as above. The procedure: as §1

The target of assay [4] is T1, recombinant human TGF-β RII/Fc chimera …. Description: SPR Biacore A100, antigen-Fc captured by anti-human IgG, purified dAb, 1:1 model. On the procedure: BIACORE™ A100 analysis was carried out using a capture surface on a CM5 chip. Anti-human IgG was used as the capturing agent and coupled to a CM5 biosensor chip by primary amine coupling. The Antigen molecule fused to the human Fc was captured on this immobilised surface to a level from 200 to 300 resonance units and supernatants or purified domain antibodies were passed over this captured surface. An injection of media or buffer over the captured antigen surface was used for double referencing. On each flow cell, a protein A spot allowed to confirm the presence of domain antibody on each sample injected. […] All runs were carried out at 25° C. using HBS-EP buffer as running buffer. Data were generated using the BIACORE™ A100 and analyzed using its inherent software. Kinetics from purified samples were fitted to the 1:1 binding model while supernatant off-rates were analyzed using the 1:1 dissociation model and/or using the binding level and the stability level of each sample in comparison to the parent molecule.
A selection of mutants with improved off-rate were purified and subjected to full BIACORE™ A100 kinetic analysis to determine their affinity (Table 10). The thermal stability of the mutants was also determined by generation of melting profiles in the presence of SYPRO™ Orange (Invitrogen). Briefly, the purified dAbs were diluted to 50 and 100 ug/ml in a 1:500 dilution of SYPRO™ Orange in PBS, and subjected to a 30-90° C. melt curve in a Mini OPTICON™ PCR machine (BioRad). The Tm of the major positive transition was determined at each concentration and used to calculate an estimated Tm value at 1 mg/ml as an indication of the melting temperature for comparison (Table 10).

T1 sequence (P37173 24-159 limits assumed, change not shown): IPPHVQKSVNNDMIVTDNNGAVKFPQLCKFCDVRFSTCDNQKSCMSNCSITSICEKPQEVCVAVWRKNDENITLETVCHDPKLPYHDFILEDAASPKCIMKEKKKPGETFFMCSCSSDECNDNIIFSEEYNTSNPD
Chain of human TGF-βRII on cells (SBE-bla HEK 293T cells; A549 cells) (P37173 23-567): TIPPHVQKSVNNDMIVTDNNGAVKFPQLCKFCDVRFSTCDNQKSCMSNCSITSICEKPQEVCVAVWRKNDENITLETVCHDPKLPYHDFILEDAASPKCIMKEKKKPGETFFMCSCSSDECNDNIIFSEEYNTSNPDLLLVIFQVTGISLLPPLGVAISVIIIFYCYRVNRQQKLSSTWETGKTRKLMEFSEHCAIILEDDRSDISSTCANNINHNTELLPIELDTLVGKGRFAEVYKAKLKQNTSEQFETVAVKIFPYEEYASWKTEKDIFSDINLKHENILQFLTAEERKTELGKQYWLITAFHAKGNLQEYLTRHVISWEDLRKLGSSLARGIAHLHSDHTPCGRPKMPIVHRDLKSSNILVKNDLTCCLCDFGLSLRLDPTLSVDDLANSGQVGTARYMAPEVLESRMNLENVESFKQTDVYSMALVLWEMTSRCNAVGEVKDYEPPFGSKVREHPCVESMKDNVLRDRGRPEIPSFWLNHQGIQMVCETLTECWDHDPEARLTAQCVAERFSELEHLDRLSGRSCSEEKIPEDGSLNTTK

B1: DOM23h-271-130 (DOM23h-271-123 + C-terminal Alanine) (VHH)
VHH: EVQLLESGGGLVQPGGSLRLSCAASGSTFTEYRMWWVRQAPGKGLEWVSAIEPIGHRTYYADSVKGRFTISRDNSKNTLYLQMNSLRAEDTAVYYCAKQAPGEKWARRWDLDYWGQGTLVTVSS
notes: human VH dAb
For B1, the “IC50 nM, Mean (SBE-bla HEK 293T cell sensor assay)” value (shortened to “IC50 nM, Mean”) in assay [1] turned out to be 37 nM. In addition, in assay [2], the Kd is 0.123 nM, the off-rate constant (koff) came out at 0.000309 s⁻¹ and the on-rate constant (kon) worked out at 2.51e+06 M⁻¹ s⁻¹. In assay [3], this molecule had a Kd of 0.124 nM, an off-rate (koff) of 0.000324 s⁻¹ and a kon of 2.61e+06 M⁻¹ s⁻¹.

B2: DOM23h-271-131 (DOM23h-271-123 + C-terminal Alanine + 61N) (VHH)
VHH: EVQLLESGGGLVQPGGSLRLSCAASGSTFTEYRMWWVRQAPGKGLEWVSAIEPIGHRTYYANSVKGRFTISRDNSKNTLYLQMNSLRAEDTAVYYCAKQAPGEKWARRWDLDYWGQGTLVTVSS
notes: human VH dAb
Turning to B2, the “IC50 nM, Mean” value in assay [1] came out at 6.3 nM. In assay [2], the Kd worked out at 0.0217 nM, the koff turned out to be 0.000136 s⁻¹ and the kon amounted to 6.26e+06 M⁻¹ s⁻¹. In assay [3], this molecule gave a dissociation constant (Kd) of 0.0212 nM, a koff of 0.000144 s⁻¹ and an on-rate constant (kon) of 6.81e+06 M⁻¹ s⁻¹.

B3: DOM23h-271-133 (DOM23h-271-123 + C-terminal Alanine + 61N64R) (VHH)
VHH: EVQLLESGGGLVQPGGSLRLSCAASGSTFTEYRMWWVRQAPGKGLEWVSAIEPIGHRTYYANSVRGRFTISRDNSKNTLYLQMNSLRAEDTAVYYCAKQAPGEKWARRWDLDYWGQGTLVTVSS
notes: human VH dAb
Take B3: the “IC50 nM, Mean” value in assay [1] was found to be 2.4 nM. Besides, in assay [2], the Kd came to 0.00909 nM, the off-rate constant (koff) was 7.7e-05 s⁻¹ and the kon worked out at 8.47e+06 M⁻¹ s⁻¹. For the same molecule, in assay [3], the Kd is 0.00985 nM, the koff turned out to be 8.71e-05 s⁻¹ and the on-rate constant (kon) was found to be 8.84e+06 M⁻¹ s⁻¹.

B4: DOM23h-271-132 (DOM23h-271-123 + C-terminal Alanine + 64R) (VHH)
VHH: EVQLLESGGGLVQPGGSLRLSCAASGSTFTEYRMWWVRQAPGKGLEWVSAIEPIGHRTYYADSVRGRFTISRDNSKNTLYLQMNSLRAEDTAVYYCAKQAPGEKWARRWDLDYWGQGTLVTVSS
notes: human VH dAb
B4: the “IC50 nM, Mean” value in assay [1] stood at 21 nM. Moreover, in assay [2], the Kd was 0.0182 nM, the koff came out at 0.000222 s⁻¹ and the association rate constant (kon) was 1.22e+07 M⁻¹ s⁻¹. In assay [3], this molecule yielded a dissociation constant (Kd) of 0.0185 nM, a koff of 0.000238 s⁻¹ and an on-rate constant (kon) of 1.29e+07 M⁻¹ s⁻¹.

B5: DOM23h-439-35 (VHH)
VHH: EVQLLESGGGLVQPGGSLRLSCAASGFTFGTDQMWWVRQAPGKGLEFVSRIDSPGGRTYYANSVKGRFTISRDNSKNTLYLQMNSLRAEDTAVYYCAKRQPAGVSGKYVDYWGQGTLVTVSS
notes: expressed from pC10
For B5, the “IC50 nM, Mean” value in assay [1] came out at 0.5 nM. In addition, in assay [2], the Kd is 0.00983 nM, the koff came to 0.000222 s⁻¹ and the on-rate constant (kon) worked out at 2.26e+07 M⁻¹ s⁻¹. Besides, in assay [3], binding was characterised by a dissociation constant (Kd) of 0.0291 nM, the koff was 0.000675 s⁻¹ and the association rate constant (kon) came out at 2.32e+07 M⁻¹ s⁻¹.

B6: DOM23h-439-40 (DOM23h-439-25 + C-terminal Alanine) (VHH)
VHH: EVQLLESGGGLVQPGGSLRLSCAASGFTFGTEQMWWVRQAPGKGLEFVSRIDSPGGRTYYADSVKGRFTISRDNSKNTLYLQMNSLRAEDTAVYYCAKRRPTGVSGTFYDYWGQGTLVTVSS
notes: human VH dAb
For B6, the “IC50 nM, Mean” value in assay [1] stood at 14 nM. In addition, in assay [2], the Kd stood at 0.104 nM, the off-rate (koff) was 0.00139 s⁻¹ and the kon turned out to be 1.34e+07 M⁻¹ s⁻¹. In assay [3], this molecule displayed a Kd of 0.366 nM, a koff of 0.00342 s⁻¹ and an on-rate (kon) of 9.34e+06 M⁻¹ s⁻¹.

B7: DOM23h-439-41 (DOM23h-439-25 + C-terminal Alanine + 48I) (VHH)
VHH: EVQLLESGGGLVQPGGSLRLSCAASGFTFGTEQMWWVRQAPGKGLEFISRIDSPGGRTYYADSVKGRFTISRDNSKNTLYLQMNSLRAEDTAVYYCAKRRPTGVSGTFYDYWGQGTLVTVSS
notes: human VH dAb
On to B7, for which, in assay [1], the “IC50 nM, Mean” value was determined as 1.7 nM. Moreover, in assay [2], the dissociation constant (Kd) was 0.0104 nM, the off-rate constant (koff) stood at 0.000187 s⁻¹ and the on-rate (kon) came out at 1.81e+07 M⁻¹ s⁻¹. In assay [3], this molecule displayed a dissociation constant (Kd) of 0.0333 nM, a koff of 0.000522 s⁻¹ and a kon of 1.57e+07 M⁻¹ s⁻¹.

B8: DOM23h-439-42 (DOM23h-439-25 + C-terminal Alanine + 61N) (VHH)
VHH: EVQLLESGGGLVQPGGSLRLSCAASGFTFGTEQMWWVRQAPGKGLEFVSRIDSPGGRTYYANSVKGRFTISRDNSKNTLYLQMNSLRAEDTAVYYCAKRRPTGVSGTFYDYWGQGTLVTVSS
notes: human VH dAb
On to B8, for which the “IC50 nM, Mean” value in assay [1] amounted to 0.7 nM. For the same molecule, in assay [2], the Kd was 0.0032 nM, the koff was determined as 0.000131 s⁻¹ and the kon amounted to 4.09e+07 M⁻¹ s⁻¹. In assay [3], this molecule had a dissociation constant (Kd) of 0.011 nM, a koff of 0.00041 s⁻¹ and an on-rate constant (kon) of 3.72e+07 M⁻¹ s⁻¹.

B9: DOM23h-439-43 (DOM23h-439-25 + C-terminal Alanine + 64R) (VHH)
VHH: EVQLLESGGGLVQPGGSLRLSCAASGFTFGTEQMWWVRQAPGKGLEFVSRIDSPGGRTYYADSVRGRFTISRDNSKNTLYLQMNSLRAEDTAVYYCAKRRPTGVSGTFYDYWGQGTLVTVSS
notes: human VH dAb
As for B9, the “IC50 nM, Mean” value in assay [1] is 1 nM. In addition, in assay [2], the equilibrium dissociation constant (Kd) came out at 0.0423 nM, the koff amounted to 0.000373 s⁻¹ and the kon is 8.83e+06 M⁻¹ s⁻¹. For the same molecule, in assay [3], the Kd is 0.149 nM, the koff amounted to 0.0012 s⁻¹ and the association rate constant (kon) stood at 8.04e+06 M⁻¹ s⁻¹.

B10: DOM23h-439-44 (DOM23h-439-25 + C-terminal Alanine + 61N64R) (VHH)
VHH: EVQLLESGGGLVQPGGSLRLSCAASGFTFGTEQMWWVRQAPGKGLEFVSRIDSPGGRTYYANSVRGRFTISRDNSKNTLYLQMNSLRAEDTAVYYCAKRRPTGVSGTFYDYWGQGTLVTVSS
notes: human VH dAb
For the molecule B10, the “IC50 nM, Mean” value in assay [1] came out at 1.3 nM. Besides, in assay [2], the equilibrium dissociation constant (Kd) came out at 0.00289 nM, the off-rate constant (koff) amounted to 6.91e-05 s⁻¹ and the kon came out at 2.39e+07 M⁻¹ s⁻¹. In assay [3], this molecule yielded a Kd of 0.00677 nM, a koff of 0.000147 s⁻¹ and an association rate constant (kon) of 2.17e+07 M⁻¹ s⁻¹.

B11: DOM23h-271 mutant 1A2 (R at 61, A at 64) (VHH, name in Kabat numbering)
VHH: EVQLLESGGGLVQPGGSLRLSCAASGFTFTEYRMWWVRQAPGKGLEWVSAIEPIGNRTYYARSVAGRFTISRDNSKNTLYLQMNSLRAEDTAVYYCAKQIPGRKWTANSRFDYWGQGTLVTVSS
notes: human VH dAb; expressed from pDOM13
Take B11: the Kd in assay [4] turned out to be 2.24 nM.

B12: DOM23h-271-129 (VHH)
VHH: EVQLLESGGGLVQPGGSLRLSCAASGSTFTEYRMWWVRQAPGKGLEWVSAIEPIGHRTYYADSVKGRFTISRDNSKNTLYLQMNSLRAEDTAVYYCAKQAPNQRYVARGRLDYWGQGTLVTVSS
notes: expressed from pC10
In the case of B12, the “IC50 nM, Mean” value in assay [1] is 22.7 nM. Also, in assay [2], the Kd was determined as 0.0741 nM, the koff turned out to be 0.000411 s⁻¹ and the on-rate constant (kon) is 5.55e+06 M⁻¹ s⁻¹. Besides, in assay [3], the Kd was determined as 0.0712 nM, the koff amounted to 0.000427 s⁻¹ and the kon was 6e+06 M⁻¹ s⁻¹.

B13: DOM23h-271-123 (VHH)
VHH: EVQLLESGGGLVQPGGSLRLSCAASGSTFTEYRMWWVRQAPGKGLEWVSAIEPIGHRTYYADSVKGRFTISRDNSKNTLYLQMNSLRAEDTAVYYCAKQAPGEKWARRWDLDYWGQGTLVTVSS
notes: expressed from pC10
In the case of B13, the “IC50 nM, Mean” value in assay [1] was 18.3 nM. In assay [2], the Kd was found to be 0.102 nM, the koff was 0.000293 s⁻¹ and the kon worked out at 2.89e+06 M⁻¹ s⁻¹. In assay [3], this molecule gave a Kd of 0.104 nM, a koff of 0.00032 s⁻¹ and a kon of 3.08e+06 M⁻¹ s⁻¹.

B14: DOM23h-271 mutant 1B11 (R at 61, V at 64) (VHH, name in Kabat numbering)
VHH: EVQLLESGGGLVQPGGSLRLSCAASGFTFTEYRMWWVRQAPGKGLEWVSAIEPIGNRTYYARSVVGRFTISRDNSKNTLYLQMNSLRAEDTAVYYCAKQIPGRKWTANSRFDYWGQGTLVTVSS
notes: human VH dAb; expressed from pDOM13; also called RV
Consider B14, for which the Kd in assay [4] is 1.88 nM.

B15: DOM23h-271 mutant 1B2 (V at 61, W at 64) (VHH, name in Kabat numbering)
VHH: EVQLLESGGGLVQPGGSLRLSCAASGFTFTEYRMWWVRQAPGKGLEWVSAIEPIGNRTYYAVSVWGRFTISRDNSKNTLYLQMNSLRAEDTAVYYCAKQIPGRKWTANSRFDYWGQGTLVTVSS
notes: human VH dAb; expressed from pDOM13; also called VW
With B15, the Kd in assay [4] is 1.79 nM.
